Data taken from article PMC11252000, “MFSD1 with its accessory subunit GLMP functions as a general dipeptide uniporter in lysosomes” (Nature Cell Biology, 2024).
Positions count from the first letter of the chain named. One block for each compound: values may come before it. Where a SMILES comes first, the peptide text is derived from it.

How the values were obtained:
[1] = target: T1, MFSD1–GLMP oocytes (MFSD1L11A/L12A-EmGFP + GLMPY400A-mKate2) (Mus musculus, UniProt Q9DC37, L11A/L12A); experiment: TEVC competition with Lys–Ala current in oocytes; type: cell-based
T1 construct: heterodimer at plasma membrane of Xenopus laevis oocytes; lysosomal sorting mutants; EmGFP and mKate2 fusions; with Glycosylated lysosomal membrane protein
T1 sequence (Q9DC37 1-464 L11A/L12A): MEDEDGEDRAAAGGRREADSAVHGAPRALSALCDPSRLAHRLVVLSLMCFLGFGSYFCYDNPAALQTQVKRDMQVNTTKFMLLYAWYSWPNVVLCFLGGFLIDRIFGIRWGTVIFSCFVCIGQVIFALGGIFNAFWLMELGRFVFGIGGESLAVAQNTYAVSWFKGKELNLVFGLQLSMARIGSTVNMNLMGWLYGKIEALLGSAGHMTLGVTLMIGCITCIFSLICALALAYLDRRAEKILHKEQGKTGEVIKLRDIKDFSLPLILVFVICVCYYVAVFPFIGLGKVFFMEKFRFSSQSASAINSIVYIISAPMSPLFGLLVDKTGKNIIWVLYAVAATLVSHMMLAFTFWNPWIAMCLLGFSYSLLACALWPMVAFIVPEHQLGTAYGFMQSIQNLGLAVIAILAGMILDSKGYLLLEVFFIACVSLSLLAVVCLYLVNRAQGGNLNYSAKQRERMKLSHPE
T1 sequence (Q9JHJ3 36-404 Y400A partner): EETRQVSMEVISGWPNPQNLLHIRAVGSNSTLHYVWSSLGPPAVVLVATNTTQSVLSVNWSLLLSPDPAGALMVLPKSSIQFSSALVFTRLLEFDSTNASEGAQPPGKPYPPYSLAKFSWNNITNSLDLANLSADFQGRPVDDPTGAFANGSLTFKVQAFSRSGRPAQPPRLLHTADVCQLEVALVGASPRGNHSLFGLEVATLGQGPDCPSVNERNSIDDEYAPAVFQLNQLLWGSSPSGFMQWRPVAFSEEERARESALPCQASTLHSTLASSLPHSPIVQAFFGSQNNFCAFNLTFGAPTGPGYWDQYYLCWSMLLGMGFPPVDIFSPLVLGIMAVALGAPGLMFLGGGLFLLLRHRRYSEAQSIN

[2] = target: T2, MFSD1 (MFSD1WT, mmMFSD1, MFSD1-strep) (Mus musculus, UniProt Q9DC37); experiment: nanoDSF thermal shift titration; type: binding
T2 construct: full length; N-terminal Twin-Strep-tag + HRV 3C site; Expi293F; purified in DDM/CHS; liposomes POPE:POPG:CHS for transport
T2 sequence (Q9DC37 1-464): T1 sequence (Q9DC37 1-464 L11A/L12A) with A11L, A12L

[3] = target: GLMP + MFSD1 co-complex (co-expressed MFSD1-strep and GLMP-Ct-His-GFP, purified) (mouse) (UniProt Q9DC37)
[4] = target: MFSD1-strep (mouse major facilitator superfamily domain containing 1 protein with N-terminal Twin-Strep-tag) (mouse) (UniProt Q9DC37); experiment: nanoDSF thermal shift; protein 0.2 mg/ml in 100 mM HEPES pH 7.5, 150 mM NaCl, 0.03% DDM, 0.003% CHS; 5 mM ligand, 30 min at room temperature; 20 to 95 °C at 1 °C/min (Prometheus NT.48)
His-Ser dipeptide = experiment: nanoDSF thermal stability assay; conditions: 5 mM peptide, n = 3, apo Tm of WT est. 40 °C, parent: est. 40, read off a plot
Anserine = experiment: nanoDSF thermal stability assay; conditions: 5 mM peptide, n = 3, apo Tm of WT est. 40 °C, parent: est. 40, read off a plot
Leu–Ala dipeptide = experiment: nanoDSF thermal stability assay; conditions: 5 mM peptide, n = 3, apo Tm of WT est. 40 °C, parent: est. 47, read off a plot
Ala-His = experiment: nanoDSF thermal stability assay; conditions: 5 mM peptide, n = 3, apo Tm of WT est. 40 °C, parent: est. 40, read off a plot
Pro–Arg dipeptide = experiment: nanoDSF thermal stability assay; conditions: 5 mM peptide, n = 3, apo Tm of WT est. 40 °C, parent: est. 49, read off a plot
Ala–Ala dipeptide = experiment: nanoDSF thermal stability assay; conditions: 5 mM peptide, n = 3, apo Tm of WT est. 40 °C, parent: est. 41, read off a plot
Arg–Pro dipeptide = experiment: nanoDSF thermal stability assay; conditions: 5 mM peptide, n = 3, apo Tm of WT est. 40 °C, parent: est. 42, read off a plot
Lys–Val dipeptide = experiment: nanoDSF thermal stability assay; conditions: 5 mM peptide, n = 3, apo Tm of WT est. 40 °C, parent: est. 46, read off a plot
His–Ala dipeptide = experiment: nanoDSF thermal stability assay; conditions: 5 mM peptide, n = 3, apo Tm of WT est. 40 °C, parent: est. 41, read off a plot
[5] = apo Tm of this mutant est. 36 °C
[6] = apo Tm of this mutant est. 37 °C
[7] = apo Tm of this mutant est. 42 °C
[8] = apo Tm of this mutant est. 47 °C
[9] = apo Tm of this mutant est. 39 °C

Sequence of MFSD1-strep (mouse major facilitator superfamily domain containing 1 protein with N-terminal Twin-Strep-tag) (from UniProt Q9DC37) Q176A (Q9DC37 whole entry Q176A, looked up, the tested form may be a part): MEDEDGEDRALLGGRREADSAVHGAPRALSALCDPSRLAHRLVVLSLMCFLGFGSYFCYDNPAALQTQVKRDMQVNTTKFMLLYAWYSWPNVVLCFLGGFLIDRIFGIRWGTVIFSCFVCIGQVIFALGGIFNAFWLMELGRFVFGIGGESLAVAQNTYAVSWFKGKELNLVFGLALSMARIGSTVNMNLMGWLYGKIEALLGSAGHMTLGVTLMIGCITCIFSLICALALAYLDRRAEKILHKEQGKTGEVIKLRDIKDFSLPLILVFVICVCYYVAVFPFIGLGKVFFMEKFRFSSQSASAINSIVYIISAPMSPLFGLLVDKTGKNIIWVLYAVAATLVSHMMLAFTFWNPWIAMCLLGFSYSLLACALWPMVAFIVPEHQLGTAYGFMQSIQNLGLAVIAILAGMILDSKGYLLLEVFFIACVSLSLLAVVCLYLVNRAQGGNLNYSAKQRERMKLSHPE
Sequence of MFSD1-strep (mouse major facilitator superfamily domain containing 1 protein with N-terminal Twin-Strep-tag) (from UniProt Q9DC37) Q176E (Q9DC37 whole entry Q176E, looked up, the tested form may be a part): as the sequence (Q9DC37 whole entry Q176A, looked up, the tested form may be a part) above, with A176E counted along it
Sequence of MFSD1-strep (mouse major facilitator superfamily domain containing 1 protein with N-terminal Twin-Strep-tag) (from UniProt Q9DC37) Q176K (Q9DC37 whole entry Q176K, looked up, the tested form may be a part): as the sequence (Q9DC37 whole entry Q176A, looked up, the tested form may be a part) above, with A176K counted along it
Sequence of MFSD1-strep (mouse major facilitator superfamily domain containing 1 protein with N-terminal Twin-Strep-tag) (from UniProt Q9DC37) Y56A (Q9DC37 whole entry Y56A, looked up, the tested form may be a part): as the sequence (Q9DC37 whole entry Q176A, looked up, the tested form may be a part) above, with Y56A, A176Q counted along it
Sequence of MFSD1-strep (mouse major facilitator superfamily domain containing 1 protein with N-terminal Twin-Strep-tag) (from UniProt Q9DC37) W373A (Q9DC37 whole entry W373A, looked up, the tested form may be a part): as the sequence (Q9DC37 whole entry Q176A, looked up, the tested form may be a part) above, with A176Q, W373A counted along it

Compound: C[C@H](N)C(=O)N[C@@H](C)C(=O)O [Ala–Ala] (H-Ala-Ala-OH)
inhibition at 20000 µM ([1]; read-out: % inhibition at 20 mM): 66 ± 3%

Compound: CC(C)[C@H](NC(=O)[C@@H](N)CCCCN)C(=O)O [Lys–Val] (H-Lys-Val-OH)
Kd [2]: 4300 ± 600 µM

Compound: Glu–Ser dipeptide
inhibition of the current evoked by 3 mM Lys–Ala in MFSD1–GLMP oocytes (TEVC, pH 5.0) by 10 mM Glu–Ser applied simultaneously [3]: 26%

Compound: His–Lys dipeptide
ΔTm at 5 mM ligand [4]: 12 °C

Compound: Lys–Ala dipeptide
KM of the Lys–Ala-evoked inward current in MFSD1–GLMP oocytes (TEVC, −40 mV, pH 5.0) [3]: 2.6 mM

Compound: MFSD1-strep (mouse major facilitator superfamily domain containing 1 protein with N-terminal Twin-Strep-tag) (from UniProt Q9DC37) Q176E
other: Tm (His-Ser dipeptide; [6]): 40 °C | other: Tm (Anserine; [6]): 40 °C | other: Tm (Leu–Ala dipeptide; [6]): 52 °C | other: Tm (Ala-His; [6]): 40 °C | other: Tm (Pro–Arg dipeptide; [6]): 51 °C | other: Tm (Ala–Ala dipeptide; [6]): 42 °C | other: Tm (Arg–Pro dipeptide; [6]): 48 °C | other: Tm (Lys–Val dipeptide; [6]): 49 °C | other: Tm (His–Ala dipeptide; [6]): 44 °C

Compound: MFSD1-strep (mouse major facilitator superfamily domain containing 1 protein with N-terminal Twin-Strep-tag) (from UniProt Q9DC37) W373A
other: Tm (His-Ser dipeptide; [8]): 47 °C | other: Tm (Anserine; [8]): 47 °C | other: Tm (Leu–Ala dipeptide; [8]): 47 °C | other: Tm (Ala-His; [8]): 47 °C | other: Tm (Pro–Arg dipeptide; [8]): 47 °C | other: Tm (Ala–Ala dipeptide; [8]): 47 °C | other: Tm (Arg–Pro dipeptide; [8]): 46 °C | other: Tm (Lys–Val dipeptide; [8]): 47 °C | other: Tm (His–Ala dipeptide; [8]): 47 °C

Results, then the compound that gave them:

inhibition at 10000 µM ([1]; read-out: % inhibition at 10 mM): 26 ± 3%
Compound: N[C@@H](CCC(=O)O)C(=O)N[C@@H](CO)C(=O)O [Glu–Ser] (H-Glu-Ser-OH)

Kd [2]: 765 ± 136 µM
Compound: NCCCC[C@H](NC(=O)[C@@H](N)Cc1c[nH]cn1)C(=O)O [His–Lys] (H-His-Lys-OH)

Kd [2]: 2200 ± 420 µM
Compound: CC(C)C[C@H](N)C(=O)N[C@@H](C)C(=O)O [Leu–Ala] (H-Leu-Ala-OH)

Kd [2]: 318 ± 66.7 µM
Compound: N=C(N)NCCC[C@H](NC(=O)[C@@H]1CCCN1)C(=O)O [Pro–Arg] (H-Pro-Arg-OH)

ΔTm at 5 mM ligand [4]: 14 °C
Compound: Leu–Leu dipeptide

other: Tm (His-Ser dipeptide; [5]): 37 °C | other: Tm (Anserine; [5]): 36 °C | other: Tm (Leu–Ala dipeptide; [5]): 48 °C | other: Tm (Ala-His; [5]): 36 °C | other: Tm (Pro–Arg dipeptide; [5]): 59 °C | other: Tm (Ala–Ala dipeptide; [5]): 40 °C | other: Tm (Arg–Pro dipeptide; [5]): 48 °C | other: Tm (Lys–Val dipeptide; [5]): 49 °C | other: Tm (His–Ala dipeptide; [5]): 42 °C
Compound: MFSD1-strep (mouse major facilitator superfamily domain containing 1 protein with N-terminal Twin-Strep-tag) (from UniProt Q9DC37) Q176A

other: Tm (His-Ser dipeptide; [7]): 45 °C | other: Tm (Anserine; [7]): 43 °C | other: Tm (Leu–Ala dipeptide; [7]): 53 °C | other: Tm (Ala-His; [7]): 43 °C | other: Tm (Pro–Arg dipeptide; [7]): 42 °C | other: Tm (Ala–Ala dipeptide; [7]): 46 °C | other: Tm (Arg–Pro dipeptide; [7]): 42 °C | other: Tm (Lys–Val dipeptide; [7]): 43 °C | other: Tm (His–Ala dipeptide; [7]): 49 °C
Compound: MFSD1-strep (mouse major facilitator superfamily domain containing 1 protein with N-terminal Twin-Strep-tag) (from UniProt Q9DC37) Q176K

other: Tm (His-Ser dipeptide; [9]): 42 °C | other: Tm (Anserine; [9]): 42 °C | other: Tm (Leu–Ala dipeptide; [9]): 45 °C | other: Tm (Ala-His; [9]): 42 °C | other: Tm (Pro–Arg dipeptide; [9]): 44 °C | other: Tm (Ala–Ala dipeptide; [9]): 41 °C | other: Tm (Arg–Pro dipeptide; [9]): 42 °C | other: Tm (Lys–Val dipeptide; [9]): 45 °C | other: Tm (His–Ala dipeptide; [9]): 42 °C
Compound: MFSD1-strep (mouse major facilitator superfamily domain containing 1 protein with N-terminal Twin-Strep-tag) (from UniProt Q9DC37) Y56A

ΔTm at 5 mM ligand [4]: 12.1 °C
Compound: Pro–Arg dipeptide
